{
  "source": "patent US20170306005A1",
  "about": "(NASCIENT, published 2017)",
  "key": {"[1]": {"target": "T1, Human FGB-rCd4", "T1 construct": "Not the same construct as m1, which has the FBG at the C terminus; also called human TNC FBG-rCD4; human tenascin-C FBG-rCd4-His (FBG at the N terminus of the rat Cd4 tag); not shown: rat Cd4 (domains 3 and 4) tag, the C-terminal His6 tag and the vector-derived junction residues of pBIOCAM4", "T1 chain": "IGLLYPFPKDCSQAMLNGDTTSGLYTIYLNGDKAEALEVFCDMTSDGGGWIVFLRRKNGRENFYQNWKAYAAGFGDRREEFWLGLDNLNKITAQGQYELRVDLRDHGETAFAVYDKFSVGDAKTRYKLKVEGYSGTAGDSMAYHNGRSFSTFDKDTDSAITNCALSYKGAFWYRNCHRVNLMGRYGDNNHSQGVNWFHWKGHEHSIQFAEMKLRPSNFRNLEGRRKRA", "experiment": "ELISA (DELFIA), antigen coated on the well, purified Fab at 50 nM, detected with anti-kappa or anti-lambda mAb and Europium-conjugated anti-mouse mAb"}, "[2]": {"target": "T2, mouse tenascin-C rCd4-His-FBG (rat; mouse, UniProt P05540 207-392, limits assumed)", "T2 construct": "domain: domains 3 and 4; C-terminal FBG fusion; biotinylated in the ELISA screen; also called Mu TNC; mouse TNC rCd4-His-FBG; not shown: 6His tag", "T2 sequence (chain (part 1 of 2))": "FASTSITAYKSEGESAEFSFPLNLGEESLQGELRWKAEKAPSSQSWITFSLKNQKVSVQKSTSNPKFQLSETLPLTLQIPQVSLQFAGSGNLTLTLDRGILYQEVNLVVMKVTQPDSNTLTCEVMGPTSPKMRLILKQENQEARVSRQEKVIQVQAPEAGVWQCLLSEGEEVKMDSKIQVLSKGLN", "T2 sequence (chain (part 2 of 2))": "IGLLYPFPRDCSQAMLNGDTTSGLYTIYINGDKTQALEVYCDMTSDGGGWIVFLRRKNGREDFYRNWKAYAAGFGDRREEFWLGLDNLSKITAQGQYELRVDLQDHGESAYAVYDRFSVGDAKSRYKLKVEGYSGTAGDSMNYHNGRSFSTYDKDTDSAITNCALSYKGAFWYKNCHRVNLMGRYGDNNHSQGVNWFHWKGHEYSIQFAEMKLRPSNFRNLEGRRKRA", "experiment": "SPR, parental antibody"}, "[3]": {"target": "T2, mouse tenascin-C rCd4-His-FBG", "experiment": "SPR, captured Fab, 25 C", "experimental": "(§1) Experiments were performed using a BIAcore T100 instrument with CM5 sensor chip according to the protocol provided with the Human Fab Capture Kit (GE, 28-9583-25). […] After reference signal subtraction, the data was fitted to a global 1:1 fit using the T100 BIAevaluation software (FIGS. 6 a-d)."}, "[4]": {"target": "T3, human tenascin-C rCd4-His-FBG (rat; human, UniProt P05540 207-392, limits assumed)", "T3 construct": "domain: domains 3 and 4; C-terminal FBG fusion; biotinylated in the ELISA and HTRF screens; also called Hu TNC; human TNC rCd4-His-FBG; not shown: 6His tag", "T3 sequence (chain (part 1 of 2))": "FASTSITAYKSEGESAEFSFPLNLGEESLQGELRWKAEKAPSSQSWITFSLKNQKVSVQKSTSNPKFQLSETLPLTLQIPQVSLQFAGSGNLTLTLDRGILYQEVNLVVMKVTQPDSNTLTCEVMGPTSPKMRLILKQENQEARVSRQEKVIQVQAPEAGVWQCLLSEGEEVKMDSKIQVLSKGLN", "T3 sequence (chain (part 2 of 2))": "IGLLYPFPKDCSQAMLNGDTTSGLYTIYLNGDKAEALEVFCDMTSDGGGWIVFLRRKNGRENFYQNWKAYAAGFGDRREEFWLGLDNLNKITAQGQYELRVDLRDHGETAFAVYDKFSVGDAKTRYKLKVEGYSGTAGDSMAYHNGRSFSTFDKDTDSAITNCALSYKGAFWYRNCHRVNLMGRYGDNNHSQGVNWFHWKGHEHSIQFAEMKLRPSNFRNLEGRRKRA", "experiment": "SPR, captured Fab, 25 C", "experimental": "as §1"}, "[5]": {"target": "T4, human Fc-His-FBG (human, UniProt P24821 1974-2201)", "T4 sequence": "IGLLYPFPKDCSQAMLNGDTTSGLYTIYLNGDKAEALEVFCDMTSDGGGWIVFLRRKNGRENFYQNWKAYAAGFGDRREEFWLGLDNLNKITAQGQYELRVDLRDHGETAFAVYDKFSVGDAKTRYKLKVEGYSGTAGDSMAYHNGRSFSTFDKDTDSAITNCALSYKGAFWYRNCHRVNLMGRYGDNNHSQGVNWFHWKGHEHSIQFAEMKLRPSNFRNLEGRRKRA", "experiment": "cell-based or functional assay"}, "[6]": {"target": "T5, human tenascin-R rCd4-His-FBG (rat; human, UniProt P05540 207-392, limits assumed)", "T5 construct": "domain: domains 3 and 4; C-terminal FBG fusion; also called Hu TNR; human TNR rCd4-His-FBG; not shown: 6His tag", "T5 sequence (chain (part 1 of 2))": "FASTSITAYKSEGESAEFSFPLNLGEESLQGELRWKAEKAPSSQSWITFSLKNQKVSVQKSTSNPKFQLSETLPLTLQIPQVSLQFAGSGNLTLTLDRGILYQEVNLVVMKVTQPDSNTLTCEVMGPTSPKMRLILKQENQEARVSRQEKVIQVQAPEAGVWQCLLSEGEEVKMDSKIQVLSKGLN", "T5 sequence (chain (part 2 of 2))": "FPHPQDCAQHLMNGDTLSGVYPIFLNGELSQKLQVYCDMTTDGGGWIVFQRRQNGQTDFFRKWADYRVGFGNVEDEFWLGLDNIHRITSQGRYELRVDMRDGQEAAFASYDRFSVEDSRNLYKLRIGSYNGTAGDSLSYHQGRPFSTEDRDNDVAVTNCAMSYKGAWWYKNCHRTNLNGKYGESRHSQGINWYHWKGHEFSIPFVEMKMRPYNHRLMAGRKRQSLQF", "experiment": "SPR steady state, captured Fab, 25 C", "experimental": "as §1"}},
  "data": [
    {"binder": "Fab F3 (Fab, V domains shown, monomeric Fab) VH: EVQLLESGGGLVQPGGSLRLSCAASGFTFSSYGMHWVRQAPGKGLEWVAVISYDGSNKYYADSVKGRFTISRGNSKNTLYLQMNSLKAEDTAVYYCAREGYDQLFSAESNAFDIWGQGTLVTVSS VL: NFMLAQPHSVSESPGKTVTISCTRSSGSIASYFVQWFQQRPGSAPTAVIYEDNQRPSGVPDRFSGSIDSSSNSASLTISGLKTEDEADYYCQSYDSSNWVFGGGTKVTVLG", "values": [
      {"measurement": "binding result", "setting": "[1]", "value": "binds"},
      {"measurement": "fold difference in affinity between human and mouse rCd4-his-FBG", "setting": "[2]", "value": 2.6, "unit": "fold"},
      {"measurement": "Kd", "setting": "[3]", "value": 70.6, "unit": "nM"},
      {"measurement": "koff", "setting": "[3]", "value": 0.00642, "unit": "s⁻¹"},
      {"measurement": "kon", "setting": "[3]", "value": 91000, "unit": "M⁻¹ s⁻¹"},
      {"measurement": "Kd", "setting": "[4]", "value": 27.4, "unit": "nM"},
      {"measurement": "koff", "setting": "[4]", "value": 0.00346, "unit": "s⁻¹"},
      {"measurement": "kon", "setting": "[4]", "value": 126000, "unit": "M⁻¹ s⁻¹"},
      {"measurement": "IC50, inhibition of Fc-His-HuFBG-evoked IL-8 release, THP1-Blue cells", "setting": "[5]", "value": 13.8, "unit": "nM"},
      {"measurement": "IC50, inhibition of Fc-His-HuFBG-evoked alkaline phosphatase, THP1-Blue cells", "setting": "[5]", "value": 8.4, "unit": "nM"},
      {"measurement": "Kd", "setting": "[6]", "value": 1810, "unit": "nM"}
    ]}
  ]
}
